Entries after “also recorded” stand apart in the source; their conditions may differ. Where two headings read alike, the source gives them in different places.
Columns and labels:
rat PDGFRB receptor = target: T1, rat PDGFRB receptor (Rattus norvegicus, UniProt Q05030); experiment: Affinity (KD in nM) | SCC-rPDGFRβ cells
T1 construct: GFP; expressed in transfected cells; host or cells: SCC VII cells
Method: (§1) Table printed on a drawing sheet, FIG. 6
Head of the field: Affinity (KD in nM) | SCC-rPDGFRβ cells
(§2) The patent's description of the figure: FIG. 6. Amino acid sequence of rat PDGFRB VHHs (CDRs underlined). Affinities are measured on rat PDGFRB ectodomain (ECD) and squamous cell carcinoma cells transfected with rat PDGFRB receptor (SCC-rPDGFRB). Data of the competition assays is included to categorize the VHHs in different epitope groups.
(§3) First copying reader's note: Each sequence is printed over two lines and joined here by a blank; the underlining that marks the CDRs is not reproduced.
Where the first naming reader finds the target: description_of_the_figure: squamous cell carcinoma cells transfected with rat PDGFRB receptor (SCC-rPDGFRB)

PDGFRB ECD = target: T2, PDGFRB ECD (Homo sapiens, UniProt P09619); experiment: Competition ELISA with SP02P and SP26P on PDGFRB ECD; format: binding; settings: versus SPO2P
T2 construct: assay with SP02P and SP26P on PDGFRB ECD
T2 sequence (P09619 33-532): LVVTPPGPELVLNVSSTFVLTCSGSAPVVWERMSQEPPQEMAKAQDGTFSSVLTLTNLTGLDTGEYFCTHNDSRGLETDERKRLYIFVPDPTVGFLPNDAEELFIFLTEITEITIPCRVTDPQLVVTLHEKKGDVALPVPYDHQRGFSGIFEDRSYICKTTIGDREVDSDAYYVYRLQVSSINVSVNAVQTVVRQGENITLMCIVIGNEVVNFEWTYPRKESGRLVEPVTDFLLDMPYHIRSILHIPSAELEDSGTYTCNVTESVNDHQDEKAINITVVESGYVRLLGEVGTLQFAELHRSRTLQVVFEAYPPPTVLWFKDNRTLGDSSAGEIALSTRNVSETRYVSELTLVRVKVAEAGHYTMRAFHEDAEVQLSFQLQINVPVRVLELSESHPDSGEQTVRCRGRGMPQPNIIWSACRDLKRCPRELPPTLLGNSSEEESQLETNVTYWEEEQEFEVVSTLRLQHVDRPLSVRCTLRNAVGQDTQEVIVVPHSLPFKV
Method: Competition ELISAs were carried out to determine whether the hPDGFRB specific binders (FIG. 5) and rPDGFRB specific binders (FIG. 6) recognize distinct epitopes on hPDGFRB or rPDGFRB, respectively. The hPDGFRB binding VHHs SPO2P, SP05P, SP12P and SP14P and the rPDGFRB binder SP26P were conjugated to IRDye800CW (VHH-IRDye800CW, conjugation method as described in example 9.2) and each conjugated VHH was mixed with unconjugated competitor in trifold serial dilutions and incubated on immobilized […]. Two VHHs share (part of) the same epitope when the fluorescence signal of the VHH-IRDye800CW decreases upon increasing concentration of unconjugated VHH. Furthermore, using a similar method as described in section 5.1, binding epitope competition between the hPDGFRB binding VHH SPO2P and rPDGFRB binding VHH

[1] = target: rat PDGFRB ectodomain (ECD); experiment: Affinity (KD in nM) | PDGFRβ ECD
Method: as §1
Head of the field: Affinity (KD in nM) | PDGFRβ ECD
as §2, §3
Where the first naming reader finds the target: description_of_the_figure: Affinities are measured on rat PDGFRB ectodomain (ECD) and squamous cell carcinoma cells transfected with rat PDGFRB receptor (SCC-rPDGFRB).

hIGF2R-ECD = target: T3, hIGF2R-ECD (Homo sapiens, UniProt P11717); experiment: Binding assay / titration ELISA on recombinant hIGF2R-ECD; settings: KD+SEM, n=2, read-out: calculated affinity (KD)
T3 construct: recombinant human extracellular domain of IGF2R (hIGF2R-ECD)
Method: The 15 unique hIGF2R binders (Example 1.1, FIG. 2) were produced and purified as described in examples 2 and 3. The apparent affinities were determined with binding assays on hIGF2R-ECD. Briefly, three-fold serial VHH dilutions, starting from 1 μM, were added onto hIGF2R-ECD coated plates. After 2 hours of incubation, plates were washed and bound VHH was detected using a VHH-specific IgG antibody, followed by an IRD800CW-conjugated IgG-specific antibody. […] VHH 13F11 was also produced with a C-terminal free cysteine and conjugated using maleimide chemistry to Alexa Fluor 647 (13F11-A647 in FIG. 8A, conjugation method as described in example 9.2). A titration ELISA (direct read out at 647 nm) with this construct was carried out on hIGF2R-ECD to determine whether the affinity was affected after site directed conjugation (FIG. 8B). The KD and Bmax were calculated in Graphpad (version 8.3), using one-site specific binding analysis (FIG. 8C).
Based on their high affinity and binding to non-overlapping receptor epitopes, VHHs 13F11 and 13E8 were selected for the design of biparatopic and bivalent VHH constructs. Two VHHs were fused with a flexible linker, consisting of three Gly-Gly-Gly-Gly-Ser repeats (FIG. 8A). The sequences were codon optimized for expression in E. coli and obtained as synthesized DNA fragments from GeneArt. The DNA fragments encoding VHHs were cloned into a vector pET28-based vector introducing a C-terminal free cysteine for site-directed conjugation and His6 tag for IMAC purification (FIG. 8A). The constructs were produced and purified as described in example 3. The constructs were conjugated to Alexa Fluor 647 (conjugation method as described in example 9.2) and titration ELISAs on recombinant hIGF2R-ECD (as described in example 4.1) were performed to determine the KD and Bmax (calculated in Graphpad (version 8.3), using one-site specific binding analysis) (FIG. 8C).
Next, 13F11-13E8 was genetically re-engineered to include an in vivo half-life extender in the form of an albumin binding domain (ABD) as described by Johansson et al (Structure, specificity, and mode of interaction for bacterial albumin-binding modules, J. Biol. Chem. 2002 (277): 8114-8120) and subsequently produced and purified as described in Example 3. Subsequently, 13F11-13E8-ABD was conjugated to IRDye800CW (F11E8-ABD-IRD800, conjugation method as described in example 9.2) and the binding affinities of the biparatopic VHH as well as the ABD unit was determined. […] The binding affinity (KD) of F11-E8-ABD-IRD800 to rat serum albumin (RSA) was 30 nM and to mouse serum albumin (MSA) and human serum albumin (HSA) the binding affinity was approximately 200 nM.

[2] = test system: A549 cells (IGF2R positive); experiment: Internalization in A549 cells (acid wash, confocal); format: cell-based, human; settings: 25 nM VHH conjugated to Alexa Fluor 647
Method: (§4) To assess if monovalent 13F11 and biparatopic 13F11-13E8 are internalized in the hIGF2R expressing cells, A549 cells (FIG. 16A) and NIH 3T3 2.2 cells transiently transfected with hIGF2R (FIG. 16B) were incubated with 25 nM VHH conjugated to Alexa Fluor 647 (conjugation method as described in example 9.2). A Mouse anti-IGF2R mAb was included to detect IGF2R expression on the hIGF2R transfected cells NIH 3T3 2.2 (FIG. 16B, right column), the mAb was detected with a goat anti-mouse mAb conjugated to Alexa Fluor 555. Additionally, mock transfected NIH 3T3 2.2 cells were incubated with 13F11 and 13F11-13E8 (FIG. 16C). […]
(§5) (FIG. 10D). […] The rate of internalization (endocytic rate constant, ke) of biparatopic constructs 13F11-13E8 and 13E8-13F11 was determined with a kinetic internalization assay on SCC-VII cells transfected with hIGF2R and rIGF2R. […] Subsequently, cells were washed with cold PBS and the non-internalized VHH construct (bound fraction) was separated from the internalized construct (internalized fraction) using an acid-wash, as described above, after which the fluorescence of both fractions were measured. […] Internalization was also observed in rIGF2R expressing SCC cells as a clear increase in fluorescence over time can be shown in FIG. 17 (ke around 0.7 min-1).

[3] = test system: mock transfected NIH 3T3 2.2 cells; experiment: Internalization in mock transfected NIH 3T3 2.2 cells; format: cell-based; settings: 25 nM VHH conjugated to Alexa Fluor 647
Method: as §4, §5

[4] = test system: NIH 3T3 2.2 cells transiently transfected with hIGF2R; experiment: Internalization in NIH 3T3 2.2 cells transiently transfected with hIGF2R; format: cell-based, human; settings: 25 nM VHH conjugated to Alexa Fluor 647
Method: as §4, §5

[5] = test system: BDL rats (portal hypertension); experiment: Portal pressure and mean arterial pressure in BDL and SHAM rats after i.v. dosing; format: in vivo, rat; settings: 5 mg/kg i.v.
Text: To evaluate in vivo functionality, 13F11-13E8-ABD was conjugated to a Y27632-maleimide modified functional moiety (1e) (the test conjugate) as outlined in example 9.2. To provide a comparator, a similar amount of 13F11-13E8-ABD was conjugated to N-ethylmaleimide in a parallel and similar preparation (the mock conjugate).
To establish animals displaying portal hypertension (Klein et al, Fibrosis: Methods and Protocols. Methods in Molecular Biology. 2017 (1627): 91-122.), Sprague-Dawley rats were subjected to bile duct ligation (BDL) through median laparotomy under ketamine/xylazine-induced anaesthesia i.p. (BDL rats). To provide healthy controls, a second cohort of rats was subjected to the same surgical procedure except for actual ligation of the bile duct (SHAM rats). Surgery was followed-up with pain control medication (carprofen s.c.). Approximately five weeks after surgery, ketamine/xylazine anesthetized rats were subjected to median laparotomy, after which one catheter was inserted through an ileocecal vein to the portal vein, and one catheter was inserted into the femoral artery. The catheters were connected to pressure recording equipment, for assessment of portal pressure and mean arterial pressure, respectively.
(§6) After catheterization and hemodynamic stabilization, rats were dosed with 5 mg/kg test conjugate or mock conjugate i.v. through the lateral tail vein and pressures were monitored continuously (example 13.1.). One hour after dosing, animals were sacrificed after which tissues were isolated for ex vivo analysis (example 13.2.).

IGF2R = target: T4, IGF2R (Rattus norvegicus, UniProt G3V824); experiment: In situ detection of infused conjugate in liver cryo-sections (in vivo targeting of IGF2R)
T4 construct: from tissue; host or cells: cryo-sections of liver and other tissues, and liver in vivo, of Sprague-Dawley BDL and SHAM rats
T4 sequence (G3V824 36-2481): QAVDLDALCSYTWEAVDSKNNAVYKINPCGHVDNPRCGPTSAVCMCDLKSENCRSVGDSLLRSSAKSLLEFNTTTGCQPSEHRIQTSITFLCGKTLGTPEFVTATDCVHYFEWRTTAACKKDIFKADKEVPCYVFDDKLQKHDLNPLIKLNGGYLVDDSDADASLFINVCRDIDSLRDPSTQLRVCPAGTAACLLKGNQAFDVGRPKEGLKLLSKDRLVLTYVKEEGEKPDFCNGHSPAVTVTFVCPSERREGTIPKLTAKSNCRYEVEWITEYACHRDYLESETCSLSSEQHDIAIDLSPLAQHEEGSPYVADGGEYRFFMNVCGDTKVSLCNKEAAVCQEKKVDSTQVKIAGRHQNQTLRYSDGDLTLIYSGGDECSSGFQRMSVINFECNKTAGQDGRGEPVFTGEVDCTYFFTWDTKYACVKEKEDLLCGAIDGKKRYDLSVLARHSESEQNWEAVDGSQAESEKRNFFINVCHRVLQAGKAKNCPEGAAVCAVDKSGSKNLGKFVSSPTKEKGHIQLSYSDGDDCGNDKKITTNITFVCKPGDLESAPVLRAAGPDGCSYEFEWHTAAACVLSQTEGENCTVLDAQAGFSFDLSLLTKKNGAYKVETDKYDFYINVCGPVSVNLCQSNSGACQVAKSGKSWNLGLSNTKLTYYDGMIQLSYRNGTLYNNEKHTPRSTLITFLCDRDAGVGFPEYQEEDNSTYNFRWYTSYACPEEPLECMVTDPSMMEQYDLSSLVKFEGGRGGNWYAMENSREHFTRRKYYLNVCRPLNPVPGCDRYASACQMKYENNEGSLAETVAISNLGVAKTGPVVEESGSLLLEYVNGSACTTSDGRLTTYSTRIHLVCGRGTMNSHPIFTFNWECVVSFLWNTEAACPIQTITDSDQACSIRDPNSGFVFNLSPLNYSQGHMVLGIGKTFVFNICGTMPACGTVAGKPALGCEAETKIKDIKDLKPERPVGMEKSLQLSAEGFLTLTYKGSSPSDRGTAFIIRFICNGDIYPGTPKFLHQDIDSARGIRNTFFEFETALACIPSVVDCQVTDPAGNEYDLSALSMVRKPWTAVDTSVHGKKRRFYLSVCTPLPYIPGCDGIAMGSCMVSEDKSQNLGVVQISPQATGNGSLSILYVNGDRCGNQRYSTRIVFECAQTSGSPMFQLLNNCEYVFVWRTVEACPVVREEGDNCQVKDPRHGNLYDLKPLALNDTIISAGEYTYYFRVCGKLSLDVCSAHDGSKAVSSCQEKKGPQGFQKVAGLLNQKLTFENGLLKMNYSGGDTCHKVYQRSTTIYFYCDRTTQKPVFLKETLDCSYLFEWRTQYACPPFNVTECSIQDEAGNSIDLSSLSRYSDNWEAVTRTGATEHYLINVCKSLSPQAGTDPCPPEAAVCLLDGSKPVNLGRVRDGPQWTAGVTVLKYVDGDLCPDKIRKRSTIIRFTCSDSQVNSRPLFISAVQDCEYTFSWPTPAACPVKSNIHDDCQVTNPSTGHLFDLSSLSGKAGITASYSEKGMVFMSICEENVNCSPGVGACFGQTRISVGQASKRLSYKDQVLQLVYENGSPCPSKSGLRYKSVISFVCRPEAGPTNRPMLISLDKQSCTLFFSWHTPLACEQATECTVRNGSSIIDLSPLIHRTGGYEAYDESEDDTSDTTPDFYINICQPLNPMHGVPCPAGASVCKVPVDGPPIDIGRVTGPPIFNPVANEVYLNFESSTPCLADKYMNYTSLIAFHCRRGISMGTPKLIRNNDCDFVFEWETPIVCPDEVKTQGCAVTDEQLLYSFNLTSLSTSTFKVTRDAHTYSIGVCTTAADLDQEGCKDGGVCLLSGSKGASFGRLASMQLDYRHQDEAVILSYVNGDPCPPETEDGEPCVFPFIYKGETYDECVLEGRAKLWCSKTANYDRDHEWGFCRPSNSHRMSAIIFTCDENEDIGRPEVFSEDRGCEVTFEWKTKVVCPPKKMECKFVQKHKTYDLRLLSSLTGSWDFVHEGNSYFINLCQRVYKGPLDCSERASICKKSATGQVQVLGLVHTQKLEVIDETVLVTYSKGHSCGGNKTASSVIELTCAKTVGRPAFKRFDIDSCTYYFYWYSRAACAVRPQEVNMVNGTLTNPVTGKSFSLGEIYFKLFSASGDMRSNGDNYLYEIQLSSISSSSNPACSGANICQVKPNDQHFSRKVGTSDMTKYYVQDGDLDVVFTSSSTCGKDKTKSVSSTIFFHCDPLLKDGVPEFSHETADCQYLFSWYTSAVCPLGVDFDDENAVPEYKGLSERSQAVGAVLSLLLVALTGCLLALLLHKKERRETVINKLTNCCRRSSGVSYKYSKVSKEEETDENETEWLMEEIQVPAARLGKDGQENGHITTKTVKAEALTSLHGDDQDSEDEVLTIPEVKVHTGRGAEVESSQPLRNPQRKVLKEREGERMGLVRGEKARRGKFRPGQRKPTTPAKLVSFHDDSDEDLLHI
Method: as §6
After isolation, livers obtained from test conjugate-infused BDL and SHAM rats were fixated with paraformaldehyde, soaked in 30% (w/v) sucrose in PBS, and sectioned using cryo-microtome. To detect the test conjugate in situ, tissue sections were stained with a rabbit polyclonal anti-VHH antiserum recognizing the 13F11-13E8 moiety of the conjugate, followed by an anti-rabbit antibody conjugated to the fluorophore Alexa-488 for visualization by confocal fluorescence microscopy (cf. example 12). […] Further accumulation of the test conjugate in the BDL liver beyond this one-hour time point was likely to have occurred.

[6] = one hour after 5 mg/kg i.v., anti-VHH staining

B1: SP26P: rPDGFRB binding VHH, SEQ ID NO: 153 (protein, listed as Lama glama)
VHH: EVQLVESGGGLVQAGGSLRLSCAASGRSFSSSVMGWFRQTPGKEREFVAATRWTAASTHYADSVKGRFTISRDHAENAVFLQMNSLKPEDTAVYYCAAGNYLDTAQYRYNYWGQGTQVTVSS
Kd (rat PDGFRB receptor): 0.3 nM | binding epitope competition between SPO2P and SP26P (PDGFRB ECD): No competition | Kd [1]: 5.1 nM

B2: 13F11: VHH targeting IGF2R, SEQ ID NO: 273 (protein, listed as Lama glama)
VHH: EVQLVESGGRLVQPGDSLRLSCAASGRTFSDNAMGWFRQAPGKERRFVAGISWAGGSTYYSDSVKGRFTISRDNAKNTVYLQMNSLKPEDTAVYYCAAGLRAWVQRMPKDYNYWGQGTQVTVSS
Kd (hIGF2R-ECD; construct conjugated to Alexa Fluor 647, direct read out): 1 ± 0.61 nM | Kd (hIGF2R-ECD; unconjugated VHH, one-site specific binding): 0.23 ± 0.05 nM | internalization in A549 cells [2]: no internalization was observed | internalization in mock transfected NIH 3T3 2.2 cells [3]: did not internalize | internalization in hIGF2R transfected NIH 3T3 2.2 cells [4]: did internalise

B3: test conjugate: 13F11-13E8-ABD conjugated to a Y27632-maleimide modified functional moiety (1e) (conjugate)
chain: EVQLVESGGRLVQPGDSLRLSCAASGRTFSDNAMGWFRQAPGKERRFVAGISWAGGSTYYSDSVKGRFTISRDNAKNTVYLQMNSLKPEDTAVYYCAAGLRAWVQRMPKDYNYWGQGTQVTVSSGGGGSGGGGSGGGGSEVQLVESGGGLVQAGGSLRLSCAASRSISPMGWYRQAPGKQRELVAIMPSSGPPIYADSVQGRFTISRDNAKNTVYLQMNSLKPEDTAVYYCNVGGGYWGQGTQVTVSS
modifications: non-natural residues; left off: large carriers; small tags and cut ends
mean arterial pressure (MAP) ([5]; BDL rats, one hour): remained constant | portal pressure (PP) ([5]; BDL rats, one hour): gradual decrease of portal pressure | portal or arterial pressure ([5]; SHAM rats): neither the test conjugate nor the mock conjugate affected portal or arterial pressure | distribution of conjugate versus tissue distribution of IGF2R (IGF2R; liver of BDL rats): overlapped with the (tissue) distribution of IGF2R; also recorded: displays co-localization with IGF2R | detection of conjugate in liver of BDL rats (IGF2R; [6]): clearly detected | detection of conjugate in liver of SHAM rats (IGF2R; [6]): not in the healthy liver of SHAM rats
